Substitutions are numbered along the chain they refer to.

T1: hVEGF-C (human, UniProt P49767)
T1 construct: unlabelled; also called human VEGF-C
T1 sequence (VEGF-C, looked up): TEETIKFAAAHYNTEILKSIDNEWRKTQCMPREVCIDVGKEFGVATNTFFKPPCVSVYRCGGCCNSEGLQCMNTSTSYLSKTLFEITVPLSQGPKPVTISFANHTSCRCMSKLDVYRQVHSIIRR

T2: biotinylated human VEGF-C (human, UniProt P49767 112-227, limits assumed, biotin conjugated (site not stated))
T2 construct: Panning used the matured form from R&D Systems; also called biotin conjugated VEGF-C; biotinylated VEGF-C
T2 sequence: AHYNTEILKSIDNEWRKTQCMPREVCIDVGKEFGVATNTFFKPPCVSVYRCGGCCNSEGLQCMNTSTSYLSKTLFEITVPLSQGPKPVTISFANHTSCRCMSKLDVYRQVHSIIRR

T3: VEGF-C C137S
T3 construct: also called hVEGF-C C137S; human VEGF-C C137S
T3 VEGF-C: T2 sequence with C26S

T4: mature VEGF-C (R&D Systems) (human, UniProt P49767 103-227)
T4 construct: Bought from R&D Systems; also called human VEGF-C matured form (R&D systems)
T4 sequence: T1 sequence (VEGF-C, looked up)

B1: anti-VEGF-C IgG VC4 (antibody, V domains shown)
VH: EVQLVESGGGLVQPGGSLRLSCAASGFTFTDNWIHWVRQAPGKGLEWVGVISPYSGATYYADSVKGRFTISADTSKNTAYLQMNSLRAEDTAVYYCARDADYDYAGWAFDYWGQGTLVTVSS
VL: DIQMTQSPSSLSASVGDRVTITCRASQDVSTAVAWYQQKPGKAPKLLIYSASFLYSGVPSRFSGSGSGTDFTLTISSLQPEDFATYYCQQSYTTPPTFGQGTKVEIK
notes: Only the six HVRs are tied to this clone; also called clone VC4
B2: VC4.3 (antibody, V domains shown)
VH: B1 VH with D31Y, N32S, V50F, Y54G, S55V, A57Y, T58S
VL: B1 VL with S91T, T93R, T94I, P96Y
notes: also called clone VC4.3
B3: VC4.4 (antibody, V domains shown)
VH: B1 VH with A100V, D103Y, G106W, F109L
VL: B1 VL
notes: also called clone VC4.4
B4: VC4.2 (antibody, V domains shown)
VH: B1 VH with D103A, G106W
VL: B1 VL
notes: also called clone VC4.2
B5: anti-VEGF-C IgG VC3 (antibody, V domains shown)
VH: EVQLVESGGGLVQPGGSLRLSCAASGFTFTNTDIHWVRQAPGKGLEWVAWISPSSGYTDYADSVKGRFTISADTSKNTAYLQMNSLRAEDTAVYYCARWRDYRFGGVMDYWGQGTLVTVSS
VL: B1 VL
notes: Only the six HVRs are tied to this clone; also called clone VC3
B6: anti-VEGF-C IgG VC1 (antibody, V domains shown)
VH: EVQLVESGGGLVQPGGSLRLSCAASGFTFSDSDIHWVRQAPGKGLEWVAWISPYSGYTDYADSVKGRFTISADTSKNTAYLQMNSLRAEDTAVYYCARLFEVIFDYWGQGTLVTVSS
VL: B1 VL
notes: Only the six HVRs are tied to this clone; also called clone VC1
B7: anti-VEGF-C antibody mVC4.5 (mIgG2a) (antibody, V domains shown)
VH: B1 VH with G49A, D103K, G106F
VL: DIQMTQSPSSLSASVGDRVTITCRASQDVSTAVAWYQQKPGKAPKLLIYSASFLYSGVPSRFSGSGSGTDFTLTISSLQPEDFATYYCQQSYTTPPTFGQGTKVEIKR
notes: VC4.5 variable domains on a murine IgG2a backbone; also called VC4.5 murine IgG2a form; murine backbone anti-VEGF-C antibody
B8: VC1.10 (antibody, V domains shown)
VH: B6 VH with A97V, E101G, V102I
VL: B1 VL
notes: also called clone VC1.10
B9: VC1.6 (antibody, V domains shown)
VH: B6 VH with A97V, E101D
VL: B1 VL
notes: also called clone VC1.6
B10: VC1.8 (antibody, V domains shown)
VH: B6 VH with A97T, E101T, V102I
VL: B1 VL
notes: also called clone VC1.8
B11: VC1.3 (antibody, V domains shown)
VH: B6 VH with A97V
VL: B1 VL
notes: also called clone VC1.3
B12: VC1.7 (antibody, V domains shown)
VH: B6 VH with E101D, V102I
VL: B1 VL
notes: also called clone VC1.7
B13: VC1.2 (antibody, V domains shown)
VH: B6 VH with V102I
VL: B1 VL
notes: also called clone VC1.2
B14: VC1.4 (antibody, V domains shown)
VH: B6 VH with A97V, E101G
VL: B1 VL
notes: also called clone VC1.4
B15: VC1.5 (antibody, V domains shown)
VH: B6 VH with F100W
VL: B1 VL
notes: also called clone VC1.5
B16: VC1.11 (antibody, V domains shown)
VH: B6 VH with A97V, F100Y, E101D
VL: B1 VL
notes: also called clone VC1.11
B17: VC1.12 (antibody, V domains shown)
VH: B6 VH with S55V, Y57F, E101D
VL: B7 VL
notes: also called clone VC1.12
B18: VC1.12.6 (antibody, V domains shown)
VH: B6 VH with S55V, Y57F, E101D
VL: B1 VL with T93N
notes: also called clone VC1.12.6
B19: VC1.12.5 (antibody, V domains shown)
VH: B6 VH with S55V, Y57F, E101D
VL: B1 VL with P96T
notes: also called clone VC1.12.5
B20: VC1.12.4 (antibody, V domains shown)
VH: B6 VH with S55V, Y57F, E101D
VL: B1 VL with T94S, P96T
notes: also called clone VC1.12.4
B21: VC1.12.10 (antibody, V domains shown)
VH: B6 VH with S55V, Y57F, E101D
VL: B1 VL with T93Y, T94S, P96L
notes: also called clone VC1.12.10
B22: VC1.12.2 (antibody, V domains shown)
VH: B6 VH with S55V, Y57F, E101D
VL: B1 VL with T93W, P96L
notes: also called clone VC1.12.2
B23: VC1.12.1 (antibody, V domains shown)
VH: B6 VH with S55V, Y57F, E101D
VL: B1 VL with T93N, T94I
notes: also called clone VC1.12.1
B24: VC1.12.9 (antibody, V domains shown)
VH: B6 VH with S55V, Y57F, E101D
VL: B1 VL with T94I
notes: also called clone VC1.12.9
B25: VC1.12.8 (antibody, V domains shown)
VH: B6 VH with S55V, Y57F, E101D
VL: B1 VL with T93I
notes: also called clone VC1.12.8
B26: VC1.12.3 (antibody, V domains shown)
VH: B6 VH with S55V, Y57F, E101D
VL: B1 VL with S91T, T93A, T94I
notes: also called clone VC1.12.3
B27: VC4.5Fab (Fab, V domains shown)
VH: B1 VH with G49A, D103K, G106F
VL: B7 VL

The target in the first assay is T1, hVEGF-C. The assay can be described thus: phage competition ELISA: phage-displayed clone incubated with increasing soluble hVEGF-C, unbound phage captured on hVEGF-C coated plate, anti-M13-HRP, OD450.
In turn, B1 showed an IC50 of 32 nM.
The same measure, in the same setting: under B2 stands 2.72 nM.
Still for that read-out and setting: under B3 stands 2.17 nM; under B4, 2.64 nM.

A further assay addresses T1, hVEGF-C. The description is as above. This is another data set of the same source.
Consider B5, for which the IC50 came out at 300 nM.
On the same count and under the same terms, the value for B6 was 38 nM; that for B1 was 32 nM.

The target in a further assay is T2, biotinylated human VEGF-C. The assay can be described thus: receptor blocking ELISA: fixed biotin-VEGF-C incubated 2 h with serial dilutions of IgG, unbound VEGF-C captured on immobilized VEGFR3-Fc, streptavidin-HRP, OD450; blocked interaction VEGF-C/VEGFR3. The value stands in brackets after the curve's name in the legend box; the quantity is not named on the sheet, the value agrees with the midpoint of the curve.
Take B7: the IC50 was 0.74 nM.

A further assay has as its target T1, hVEGF-C. As to the kind of experiment: SPR, BIAcore-3000, 25 C: human IgG captured on CM5 chip (about 500 RU), human VEGF-C injected at 12.5-500 nM, 1:1 Langmuir fit.
With B5, the Kd came to 0.92 nM, the off-rate (koff) came to 0.000541 s⁻¹ and the kon came to 588000 M⁻¹ s⁻¹.
B6 came in with a Kd of 0.17 nM, a koff of 0.000189 s⁻¹ and a kon of 1.07e+06 M⁻¹ s⁻¹.
Turning to B1, the Kd was found to be 0.97 nM, the koff stood at 0.000263 s⁻¹ and the kon stood at 271000 M⁻¹ s⁻¹.

The next assay addresses T1, hVEGF-C. The assay can be described thus: phage competition ELISA: phage-displayed clone incubated with increasing soluble hVEGF-C, unbound phage captured on hVEGF-C coated plate, anti-M13-HRP, OD450. The source holds these as a separate data set.
For the molecule B6, the IC50 was 21.5 nM.
Still for that read-out and setting: under B8 stands 17 nM; under B9, 15.4 nM; under B10, 22.5 nM.
Same read-out and setting: the value for B11 was 22.1 nM; that for B12 was 20 nM.
Consider B13, for which the IC50 worked out at 27.1 nM.
On the same count and under the same terms, under B14 stands 40.7 nM; under B15, 28 nM; under B16, 25.3 nM.
Still for that read-out and setting: the value for B17 was 5.1 nM.

For a further assay, the target named is T3, VEGF-C C137S. The assay can be described thus: phage competition ELISA as in paragraph 556 with human VEGF-C C137S as antigen: phage-displayed clone, soluble antigen varied, anti-M13-HRP, OD450.
Molecule B18 gave an IC50 of 32.8 nM.
Same read-out and setting: under B19 stands 28.1 nM.
As for B20, the IC50 was 7.7 nM.
Same read-out and setting: the value for B21 was 16.8 nM; that for B22 was 25.9 nM; that for B23 was 7.29 nM.
Same read-out and setting: the value for B24 was 4.8 nM.
Same read-out and setting: under B25 stands 13.7 nM; under B26, 23 nM.
Turning to B17, the IC50 worked out at 32.4 nM.

Another assay addresses T4, mature VEGF-C (R&D Systems). The assay can be described thus: SPR, Biacore (Fab), VC4.5 Fab protein; set-up for the Fab not described (paragraph 557 describes captured IgG).
Consider B27, for which the Kd came out at 27.5 nM.

Source of the values: patent publication US20110143428A1 (Genentech, published 2011).
